Reference: patent US9575076

Legend:
[1] = biological target: Thyroid Stimulating Hormone (TSH) (UniProt P01215); test: i-STAT sandwich cartridge with TSH; capture beads TSH Ab 544, detection conjugate ME130; further: test concentration or dose not given here
[2] = biological target: Follicle Stimulating Hormone (FSH) (UniProt P01215); test: i-STAT sandwich cartridge, 0.4 mIU/L TSH plus FSH, signal gain over TSH alone; capture 94544, detection 414B
[3] = biological target: Thyroid Stimulating Hormone (TSH) (UniProt P01215); test: i-STAT sandwich cartridge with TSH; capture beads TSH Ab 544, detection conjugate M4; further: test concentration or dose not given here
[4] = biological target: Thyroid Stimulating Hormone (TSH) (UniProt P01215); test: i-STAT sandwich cartridge with TSH; capture beads TSH Ab 544, detection conjugate T25C
[5] = biological target: Thyroid Stimulating Hormone (TSH) (UniProt P01215); test: FRET competition on Alexa488-labelled antigen; competitor BHQ-labelled ME130
[6] = biological target: Thyroid Stimulating Hormone (TSH) (UniProt P01215); test: FRET competition on Alexa488-labelled antigen; competitor BHQ-labelled 414B
Luteinizing Hormone (LH) [7] = biological target: Luteinizing Hormone (LH) (UniProt P01215); test: i-STAT sandwich cartridge, 0.4 mIU/L TSH plus LH, signal gain over TSH alone; capture 94544, detection 414B
[8] = biological target: Thyroid Stimulating Hormone (TSH) (UniProt P01215); test: FRET competition on Alexa488-labelled antigen; competitor BHQ-labelled 5409
[9] = biological target: Thyroid Stimulating Hormone (TSH) (UniProt P01215); test: i-STAT sandwich cartridge with TSH; capture beads TSH Ab 544, detection conjugate 414B; further: test concentration or dose not given here
[10] = biological target: Thyroid Stimulating Hormone (TSH) (UniProt P01215); test: FRET competition on Alexa488-labelled antigen; competitor BHQ-labelled TSH Ab 544
[11] = biological target: Thyroid Stimulating Hormone (TSH) (UniProt P01215); test: FRET competition on Alexa488-labelled antigen; competitor BHQ-labelled T25C
[12] = biological target: Chorionic Gonadotropin (CG) (UniProt P01215); test: i-STAT sandwich cartridge, 0.4 mIU/L TSH plus CG, signal gain over TSH alone; capture 94544, detection 414B
[13] = biological target: Thyroid Stimulating Hormone (TSH) (UniProt P01215); test: FRET competition on Alexa488-labelled antigen; competitor BHQ-labelled M4
[14] = biological target: Thyroid Stimulating Hormone (TSH) (UniProt P01215); test: i-STAT sandwich cartridge with TSH; capture beads TSH Ab 544, detection conjugate 5409; further: test concentration or dose not given here
[15] = biological target: Chorionic Gonadotropin (CG) (UniProt P01215); test: FRET quenching titration, BHQ-10 antibody and Alexa Fluor 488 antigen
Luteinizing Hormone (LH) [16] = biological target: Luteinizing Hormone (LH) (UniProt P01215); test: as above
[17] = biological target: Thyroid Stimulating Hormone (TSH) (UniProt P01215); test: as above
[18] = biological target: Follicle Stimulating Hormone (FSH) (UniProt P01215); test: as above

electrochemical current [1]: 34.9 nA
FSH CR (%) [2]: 7.15%
electrochemical current [3]: 0.11 nA
electrochemical current [4]: 22.4 nA
relative fluorescence [5]: 0.72 normalized
relative fluorescence [6]: 0.89 normalized
LH CR (%) (Luteinizing Hormone (LH) [7]): 11.8%
relative fluorescence [8]: 0.96 normalized
electrochemical current [9]: 25 nA
relative fluorescence [10]: 1 normalized
relative fluorescence [11]: 0.71 normalized
CG CR (%) [12]: 117%
relative fluorescence [13]: 0.92 normalized
electrochemical current [14]: 7.98 nA
Kd [15]: 210 nM
Kd (Luteinizing Hormone (LH) [16]): 1000 nM
Kd [17]: 1.31 nM
Kd [18]: 1000 nM
Substance: TSH Ab 544 (Abbott Diagnostics Division) (antibody)
